In paper PMC7360965:

Molecular target: F-actin (filamentous actin), actin purified from chicken breast (Gallus gallus) (chicken (Gallus gallus)), P68139
Test: co-sedimentation
Conditions: remark: other sources report otherwise

- Kd: 1800 nM
B1: Human UTRN-ABD (utrophin actin-binding domain, amino acids 1-261), wild type, P46939 1-261 (domain or fragment)
chain: MAKYGEHEASPDNGQNEFSDIIKSRSDEHNDVQKKTFTKWINARFSKSGKPPINDMFTDLKDGRKLLDLLEGLTGTSLPKERGSTRVHALNNVNRVLQVLHQNNVELVNIGGTDIVDGNHKLTLGLLWSIILHWQVKDVMKDVMSDLQQTNSEKILLSWVRQTTRPYSQVNVLNFTTSWTDGLAFNAVLHRHKPDLFSWDKVVKMSPIERLEHAFSKAQTYLGIEKLLDPEDVAVQLPDKKSIIMYLTSLFEVLPQQVTID
